The source of these data is patent US20070117112.

The target in data set [1] is T7 RNA polymerase Y639L/H784A/K378R (LAR) (Bacteriophage T7) (UniProt P00573). The note with it: 15 mL 2'-OMe NTP transcription, 8 mM MgCl2, 2.5 mM MnCl2.
Data set [2] shares this target. The note with it: 2'-OMe NTPs.
Data set [3] addresses T7 RNA polymerase P266L/Y639L/H784A/K378R (LLAR) (Bacteriophage T7) (UniProt P00573). The conditions noted are these: 2'-OMe NTP transcription; at 2.6 ug/ml enzyme (130 at 11, 13 at 0.66, 8.3 at 0.16 ug/ml); template made with 5' poly-A extended primer.
The target in data set [4] is T7 RNA polymerase Y639L/H784A/K378R (LAR) (Bacteriophage T7) (UniProt P00573). The conditions noted are these: 2'-OMe NTP transcription; 2.1 ug/ml enzyme, 8 mM MgCl2, 2.5 mM MnCl2, 37 C; template made with 5' poly-A extended primer.

Like-named read-outs stand apart in the source and are kept apart here.

In the case of “TAATACGACTCACTATAGGGAGAGCGGAAGCCGTGCTGGGGCCNNNNNNNNNNNNNNNNNNNNNNNNNNNNNNNNNNNNNNNNCATAACCCAGAGGTCGATGGATC (double strand) [Template 2]”, in data set [1], the activity (nmol transcript) came to 17.4.
In data set [2] (listed as Pool 4 (reference)), “TAATACGACTCACTATAGGGGAGTACAATAACCAGACATNNNNNNNNNNNNNNNNNNNNNNNNNNNNNNGGATCGTTACGACTAGCATCGATG (double strand) [Template 8]” returned an activity (% relative yield) of 100.
In turn, “TAATACGACTCACTATAGGGCCTTGTAGCGTGCATTCTTGNNNNNNNNNNNNNNNNNNNNNNNNNNNNNNCTAACATACTCCGAATCTGTCGAA (double strand) [Template 5]” gave an activity (% relative yield) in data set [2] (listed as Pool 1, relative to Pool 4) of 80.
Consider “TAATACGACTCACTATAGGGAGACAAGAATAAACGCTCAANNNNNNNNNNNNNNNNNNNNNNNNNNNNNNNNNNNNNNNNTTCGACAGGAGGCTCACAACAGGC (double strand) [Template 7]”, for which the activity (% relative yield) in data set [2] (listed as Pool 3, relative to Pool 4) amounted to 130.
For “TAATACGACTCACTATAGGGGAGTACAATAACGTTCTCGNNNNNNNNNNNNNNNNNNNNNNNNNNNNNNGGATCGTTACGACTAGCATCGATG (double strand) [ARC2118 template library]”, the results for the activity (% normalized yield) in data set [3] and in data set [4] were 65 and 100, respectively.
Take “TAATACGACTCACTATAGGGAGAATTCCGACCAGAAGCTTNNNNNNNNNNNNNNNNNNNNNNNNNNNNNNNNNNNNNNNNCATATGTGCGTCTACATGGATCCTCA (double strand) [Template 1]”: in data set [1], the activity (nmol transcript) was 18.7.
Still for that read-out and setting: the result for “TAATACGACTCACTATAGGGAGAATTCCGACCACAAGNNNNNNNNNNNNNNNNNNNNNNNNNNNNNNNNNNNNNNNNCATATGTGCGTCTACATGGATCCTCA (double strand) [Template 4]” reads 27.8.
For “TAATACGACTCACTATAGGAGCCTTCCTCCGGANNNNNNNNNNNNNNNNNNNNNNNNNNNNNNNNNNNNNNNNTCCGGTTTCCCGAGCTT (double strand) [Template 6]”, the activity (% relative yield) in data set [2] (listed as Pool 2, relative to Pool 4) came out at 88.
“TAATACGACTCACTATAGGGAGAGACAAGCTTGGGTCNNNNNNNNNNNNNNNNNNNNNNNNNNNNNNNNNNNNNNNNAGAAGAGAAAGAGAAGTTAATTAAGGATCCTCAG (double strand) [Template 3]” returned an activity (nmol transcript) in data set [1] of 20.2.
